For 3 molecules, Kd, koff and kon results are on record in patent US20210261606A1 (JSR, published 2021).

Sequences and labels used below:
B1: mutant VHH antibody 2bS13-97H (VHH)
VHH: QVQLVESGGGLVQAGGSLRLSCAASGISFAINNVAWYRQAPGKQRDLVALIDKYDTGNIADSVKGRFSISRDNAKNTAYLQMNSLKPEDTAVYYCNHLGTWIRAGPYWGQGTQVTVSS
B2: mutant VHH antibody 2bS13-100H (VHH)
VHH: QVQLVESGGGLVQAGGSLRLSCAASGISFAINNVAWYRQAPGKQRDLVALIDKYDTGNIADSVKGRFSISRDNAKNTAYLQMNSLKPEDTAVYYCNALGHWIRAGPYWGQGTQVTVSS
notes: also called 2bS13-100H/PB (as ligand on the carrier)
B3: mutant VHH antibody 2bS13-102H (VHH)
VHH: QVQLVESGGGLVQAGGSLRLSCAASGISFAINNVAWYRQAPGKQRDLVALIDKYDTGNIADSVKGRFSISRDNAKNTAYLQMNSLKPEDTAVYYCNALGTWHRAGPYWGQGTQVTVSS
notes: also called 2b513-102H

The test concerns the target T1, trastuzumab Fab.
T1 construct: Made by papain digestion of trastuzumab (Herceptin); also called Fab of trastuzumab (Herceptin)
The test can be described thus: Biacore SPR, trastuzumab Fab immobilized, VHH as analyte, pH 7.4. The method, then:
Those VHH antibodies were dispersed in HBS-EP (10 mM Hepes, 150 mM NaCl, 3 mM EDTA, and 0.005% Tween-20) to produce 12.5 to 150 nM VHH antibody solutions. The trastuzumab Fab prepared in Test Example 1 was immobilized on a Biacore sensor chip, and each VHH antibody solution was applied thereto. The measurements were performed under neutral conditions (pH 7.4). Curve fitting utilizing binding model was applied to association and dissociation behaviors, whereby evaluating the association rate constant (Kon), the dissociation rate constant (Koff), and the affinity (KD). Furthermore, this sensor chip was washed with an acidic eluent (10 mM Glycine-HCl+0.5M NaCl, pH 2.0) to measure a signal. From the obtained signal shape, the elution behavior of Ig by the acid was examined.
Consider B1, for which the Kd came to 0.205 nM, the koff amounted to 0.004 s⁻¹ and the kon amounted to 1.97e+07 M⁻¹ s⁻¹.
The corresponding values for B2 are 0.376 nM, 0.0078 s⁻¹ and 2.08e+07 M⁻¹ s⁻¹.
The like results for B3 were, in that order, 1.44 nM, 0.0227 s⁻¹ and 1.58e+07 M⁻¹ s⁻¹.
